Consider 3 molecules from patent US20260053961A1, “HETERODIMER AND RADIOACTIVE MEDICAL USE THEREOF” (HEXIN (SUZHOU) PHARMACEUTICAL TECHNOLOGY CO., LTD., priority 2022, published 2026).

Structures are written as SMILES.

Data set [1] can be described thus: PET/CT imaging of ^68Ga complexes in small animals. The note with it: NCr nude, mouse, in vivo, iv, 100 uCi, total radioactivity. The format is in vivo, NCr nude mice. As for the experimental part: (§1) BxPC3 human pancreatic cancer cells are suspended in a mixture of 200 μL phosphate buffer and matrix gel (v/v, 1/1), and 2×10^6 cells were implanted subcutaneously into left shoulders of normal NCr nude mice (18-25 g, 4-6 weeks old). After an average of 1.5 weeks, a tumor diameter reached about 10 mm, which was sufficient for biodistribution and single-photon emission computed tomography-computed tomography (SPECT/CT) imaging studies.
(§2) PET-CT and image analysis were performed using a small-animal NovelMedcal PET-CT scanner (Beijing Yongxin). Maximum tangential and radial half-widths of the scanner in a center of field of view were 1.5 mm, and at an edge of the field of view were 1.8 mm.
(§3) About 100 μCi of each of the following complexes: ^68Ga-L00, ^68Ga-L11, ^68Ga-L12, ^68Ga-L13, and ^68Ga-L21, was injected into BxPC3 tumor-bearing mice via tail vein under isoflurane anesthesia, and each of the complexes was injected into four mice. Static PET-CT images were obtained for 15 min 0.5, 1, 2, 3, 4, 5 and 6 hours after intravenous injection. Distribution patterns of the five complexes at each time point were compared.
(§4) PET and CT images were acquired using NMSoft workstation software (Beijing Yongxin), and data were given as a percentage of injected dose per gram of tissue or organ (ID/g), and were determined through decay correction for each sample (standardized to a known weight of the injected dose. Normalization was performed during statistical analysis, and standardized uptake values (SUVs) were calculated according to the following formula: […]

The next data set relates to BxPC3 tumor-bearing mice. Put plainly: PET/CT imaging of ^68Ga complexes in small animals. The format is in vivo, NCr nude mice. Here is the method: as §1, §2, §3, §4
Data set [2] can be described thus: Stability study: in vitro incubation at constant temperature (37° C.) in murine plasma, LC-MS/MS. The format is in vitro ADME. Here is the method: (§5) The experiment was carried out by using an in vitro incubation method at a constant temperature (37° C.) to study the stability of the compound ([…]) from Example L11 in murine plasma or PBS. The compound obtained from Example L11 was dissolved in 1 mL of mouse serum, respectively, and incubated in vitro at a constant temperature for 0 h, 0.5 h, 1 h, 4 h, 24 h, and 48 h, and a percentage of drug remaining was then measured and determined. PBS was used as a negative control group. Peak areas of the drug and an internal standard were measured using an LC-MS/MS method, and ratios of the peaks were used instead of the drug concentration for calculation.

Data set [3] can be described thus: Stability study: in vitro incubation at constant temperature (37° C.) in PBS, LC-MS/MS. The format is physicochemical. As for the experimental part:
as §5

Regarding `C[C@@H](O)[C@@H]1NC(=O)[C@H](CCCNC(=N)N)NC(=O)CNC(=O)[C@H](CC(N)=O)NC(=O)[C@H](Cc2ccc(O)cc2)NC(=O)[C@H](CCCCNC(=O)CCOCCOCCOCCOCCNC(=O)OCC2C3CCc4nnn(CCC(C(=O)N[C@@H](CCCCNC(=O)CCC(=O)N[C@@H](CCCCNC(=O)CCCc5ccc(C(F)(F)F)cc5)C(=O)O)C(=O)NCCOCCOCCOCCOCCC(=O)NCCCC[C@@H]5NC(=O)[C@@H](Cc6ccccc6)NC(=O)[C@H](CC(=O)O)NC(=O)CNC(=O)[C@H](CCCNC(=N)N)NC5=O)N5CCN(CC(=O)O)CCN(CC(=O)O)CCN(CC(=O)O)CC5)c4CCC32)NC1=O` (single isomer, unassigned) [^68Ga-L11, metal not drawn], the tissue to tissue ratio at 6 h in data set [1] (about 6 hours after the injection, PET/CT, read-out: tumor-to-kidney ratio) is roughly 1.4. Further, in the data set on BxPC3 tumor-bearing mice (MIP images and ROI regions), the “tumor-to-kidney ratio, rank among the five complexes” value is on record as “highest among the five conjugates” and the “tumor-to-muscle ratio, rank among the five complexes” value was “highest among the five conjugates”.

For the molecule `C[C@@H](O)[C@@H]1NC(=O)[C@H](CCCNC(=N)N)NC(=O)CNC(=O)[C@H](CC(N)=O)NC(=O)[C@H](Cc2ccc(O)cc2)NC(=O)[C@H](CCCCNC(=O)CCOCCOCCOCCOCCNC(=O)OCC2C3CCc4nnn(CCC(C(=O)N[C@@H](CCCCNC(=O)CCC(=O)N[C@@H](CCCCN)C(=O)O)C(=O)NCCOCCOCCOCCOCCC(=O)NCCCC[C@@H]5NC(=O)[C@@H](Cc6ccccc6)NC(=O)[C@H](CC(=O)O)NC(=O)CNC(=O)[C@H](CCCNC(=N)N)NC5=O)N5CCN(CC(=O)O)CCN(CC(=O)O)CCN(CC(=O)O)CC5)c4CCC32)NC1=O` (stereo partly shown) [^68Ga-L00, metal not drawn], the tissue to tissue ratio at 2 h in data set [1] was roughly 0.18. In addition, in the data set with BxPC3 tumor-bearing mice (mouse, in vivo), the “clearance of the drug” value was “rapidly metabolized through the kidneys”. Also, the “signals in the tumor tissue over time” value with BxPC3 tumor-bearing mice (mouse, in vivo, iv) is “gradually weakened”.

Usually share remaining stands for what is left of the initial amount, in per cent. On to `C[C@@H](O)[C@@H]1NC(=O)[C@H](CCCNC(=N)N)NC(=O)CNC(=O)[C@H](CC(N)=O)NC(=O)[C@H](Cc2ccc(O)cc2)NC(=O)[C@H](CCCCNC(=O)CCOCCOCCOCCOCCNC(=O)OCC2C3CCc4nnn(CCC(C(=O)N[C@@H](CCCCNC(=O)CCC(=O)N[C@@H](CCCCNC(=O)CCCc5ccc(C(F)(F)F)cc5)C(=O)O)C(=O)NCCOCCOCCOCCOCCC(=O)NCCCC[C@@H]5NC(=O)[C@@H](Cc6ccccc6)NC(=O)[C@H](CC(=O)O)NC(=O)CNC(=O)[C@H](CCCNC(=N)N)NC5=O)N5CCN(CC(=O)O)CCN(CC(=O)O)CCN(CC(=O)O)CC5)c4CCC32)NC1=O` (single isomer, unassigned) [Example L11, RGD-PEG4-Lys (—R—R1)-DOTA-click-PEG4-NGR], for which the share remaining at 0.5 h, 1 g/mL in data set [2] (mouse, mouse plasma, murine plasma, 37° C., 0.5 h, read-out: Percentage of drug remaining) was 98.5%; in data set [3] (0.5 h, read-out: Percentage of drug remaining), 99.3%. For the same molecule, the share remaining at 1 h, 1 g/mL in data set [2] (mouse, mouse plasma, murine plasma, 37° C., 1 h, read-out: Percentage of drug remaining) worked out at 98.4%; in data set [3] (1 h, read-out: Percentage of drug remaining) it was 98.7%. Further, the amount remaining at 4 h, 1 g/mL in data set [2] (mouse, mouse plasma, murine plasma, 37° C., 4 h, read-out: Percentage of drug remaining) turned out to be 98%; in data set [3] (4 h, read-out: Percentage of drug remaining), 98.6%. The amount remaining at 24 h, 1 g/mL was found to be 93.4% in data set [2] (mouse, mouse plasma, murine plasma, 37° C., 24 h, read-out: Percentage of drug remaining) and 98.3% in data set [3] (24 h, read-out: Percentage of drug remaining). In addition, the share remaining at 48 h, 1 g/mL in data set [2] (mouse, mouse plasma, murine plasma, 37° C., 48 h, read-out: Percentage of drug remaining) is 86.5%; in data set [3] (48 h, read-out: Percentage of drug remaining) it was 97.9%. Also, the “Percentage of drug remaining (summary statement)” value in data set [2] (murine plasma or PBS, in vitro incubation at constant temperature, over the study) was “above 95%”. The “Percentage of drug remaining” value in data set [2] (murine plasma, 37° C., 0 h) came out at 100%; in data set [3] (0 h), 100%.
